In paper PMC4143955 one finds percentage of protoplasts exhibiting fluorescence signal data, which are given here for one substance.

For the test, the target named is SCMV-BJ VPg-YFP^N (BiFC fusion, pUC-SPYNE) (Sugarcane mosaic virus, Beijing isolate (SCMV-BJ)). Kind of test: split reporter (BiFC, NanoBiT); BiFC: YFP^N and YFP^C fusions co-transfected into maize protoplasts; YFP fluorescence captured at 12-18 h post transfection by confocal microscopy.

For “YFP^C-ZmElc (BiFC fusion, pGD-YFP^C-ZmELC) (natural protein)”, the percentage of protoplasts exhibiting fluorescence signal amounted to 64%.
